# Measured values as given in patent US20230235012A1 (ALPINE IMMUNE SCIENCES, published 2023).
# Where a chain is given by its changes, count along the chain named. Numbers in names are those of the source.
# T1: human ICOS (human, UniProt Q9Y6W8 21-199)
# T1 construct: whole, on cells
# T1 sequence (looked up): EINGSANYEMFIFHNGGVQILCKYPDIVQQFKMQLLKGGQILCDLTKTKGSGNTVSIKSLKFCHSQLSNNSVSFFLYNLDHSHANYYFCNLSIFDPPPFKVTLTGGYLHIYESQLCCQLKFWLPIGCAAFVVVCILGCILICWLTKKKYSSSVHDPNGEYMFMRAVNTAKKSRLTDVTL
# B1: ICOSL ECD N52H/N57Y/Q100P - AAA - Fc C220S/L234A/L235E/G237A (Fc fusion)
# chain: DTQEKEVRAMVGSDVELSCACPEGSRFDLNDVYVYWQTSESKTVVTYHIPQHSSLEYVDSRYRNRALMSPAGMLRGDFSLRLFNVTPQDEQKFHCLVLSPSLGFQEVLSVEVTLHVAANFSVPVVSAPHSPSQDELTFTCTSINGYPRPNVYWINKTDNSLLDQALQNDTVFLNMRGLYDVVSVLRIARTPSVNIGCCIENVLLQQNLTVGSQTGNDIGERDKITENPVSTGEKNAATAAAEPKSSDKTHTCPPCPAPEAEGAPSVFLFPPKPKDTLMISRTPEVTCVVVDVSHEDPEVKFNWYVDGVEVHNAKTKPREEQYNSTYRVVSVLTVLHQDWLNGKEYKCKVSNKALPAPIEKTISKAKGQPREPQVYTLPPSREEMTKNQVSLTCLVKGFYPSDIAVEWESNGQPENNYKTTPPVLDSDGSFFLYSKLTVDKSRWQQGNVFSCSVMHEALHNHYTQKSLSLSPGK
# B2: ICOSL ECD N52H/N57Y/Q100R/F172S - AAA - Fc C220S/L234A/L235E/G237A (Fc fusion)
# chain: B1 chain with P100R, F172S
# B3: ICOSL ECD N52H/N57Y/Q100R/F172S - G4S - Fc C220S/L234A/L235E/G237A (Fc fusion)
# chain: DTQEKEVRAMVGSDVELSCACPEGSRFDLNDVYVYWQTSESKTVVTYHIPQHSSLEYVDSRYRNRALMSPAGMLRGDFSLRLFNVTPQDEQKFHCLVLSRSLGFQEVLSVEVTLHVAANFSVPVVSAPHSPSQDELTFTCTSINGYPRPNVYWINKTDNSLLDQALQNDTVSLNMRGLYDVVSVLRIARTPSVNIGCCIENVLLQQNLTVGSQTGNDIGERDKITENPVSTGEKNAATGGGGSEPKSSDKTHTCPPCPAPEAEGAPSVFLFPPKPKDTLMISRTPEVTCVVVDVSHEDPEVKFNWYVDGVEVHNAKTKPREEQYNSTYRVVSVLTVLHQDWLNGKEYKCKVSNKALPAPIEKTISKAKGQPREPQVYTLPPSREEMTKNQVSLTCLVKGFYPSDIAVEWESNGQPENNYKTTPPVLDSDGSFFLYSKLTVDKSRWQQGNVFSCSVMHEALHNHYTQKSLSLSPGK
# B4: ICOSL ECD N52H/N57Y/Q100P - G4S - Fc C220S/L234A/L235E/G237A (Fc fusion)
# chain: B3 chain with R100P, S172F
# B5: ICOSL ECD N52H/N57Y/Q100R/F172S - AAA - Fc C220S/E233P/L234V/L235A/G236del/S267K (Fc fusion)
# chain: DTQEKEVRAMVGSDVELSCACPEGSRFDLNDVYVYWQTSESKTVVTYHIPQHSSLEYVDSRYRNRALMSPAGMLRGDFSLRLFNVTPQDEQKFHCLVLSRSLGFQEVLSVEVTLHVAANFSVPVVSAPHSPSQDELTFTCTSINGYPRPNVYWINKTDNSLLDQALQNDTVSLNMRGLYDVVSVLRIARTPSVNIGCCIENVLLQQNLTVGSQTGNDIGERDKITENPVSTGEKNAATAAAEPKSSDKTHTCPPCPAPPVAGPSVFLFPPKPKDTLMISRTPEVTCVVVDVKHEDPEVKFNWYVDGVEVHNAKTKPREEQYNSTYRVVSVLTVLHQDWLNGKEYKCKVSNKALPAPIEKTISKAKGQPREPQVYTLPPSREEMTKNQVSLTCLVKGFYPSDIAVEWESNGQPENNYKTTPPVLDSDGSFFLYSKLTVDKSRWQQGNVFSCSVMHEALHNHYTQKSLSLSPGK
# B6: ICOSL ECD N52H/N57Y/Q100P - AAA - Fc C220S/E233P/L234V/L235A/G236del/S267K (Fc fusion)
# chain: B5 chain with R100P, S172F
# B7: ICOSL ECD N52H/N57Y/Q100P - G4S - Fc C220S/E233P/L234V/L235A/G236del/S267K (Fc fusion)
# chain: DTQEKEVRAMVGSDVELSCACPEGSRFDLNDVYVYWQTSESKTVVTYHIPQHSSLEYVDSRYRNRALMSPAGMLRGDFSLRLFNVTPQDEQKFHCLVLSPSLGFQEVLSVEVTLHVAANFSVPVVSAPHSPSQDELTFTCTSINGYPRPNVYWINKTDNSLLDQALQNDTVFLNMRGLYDVVSVLRIARTPSVNIGCCIENVLLQQNLTVGSQTGNDIGERDKITENPVSTGEKNAATGGGGSEPKSSDKTHTCPPCPAPPVAGPSVFLFPPKPKDTLMISRTPEVTCVVVDVKHEDPEVKFNWYVDGVEVHNAKTKPREEQYNSTYRVVSVLTVLHQDWLNGKEYKCKVSNKALPAPIEKTISKAKGQPREPQVYTLPPSREEMTKNQVSLTCLVKGFYPSDIAVEWESNGQPENNYKTTPPVLDSDGSFFLYSKLTVDKSRWQQGNVFSCSVMHEALHNHYTQKSLSLSPGK
# B8: ICOSL ECD N52H/N57Y/Q100P - no linker - Fc C220S/L234A/L235E/G237A (Fc fusion)
# chain: DTQEKEVRAMVGSDVELSCACPEGSRFDLNDVYVYWQTSESKTVVTYHIPQHSSLEYVDSRYRNRALMSPAGMLRGDFSLRLFNVTPQDEQKFHCLVLSPSLGFQEVLSVEVTLHVAANFSVPVVSAPHSPSQDELTFTCTSINGYPRPNVYWINKTDNSLLDQALQNDTVFLNMRGLYDVVSVLRIARTPSVNIGCCIENVLLQQNLTVGSQTGNDIGERDKITENPVSTGEKNAATEPKSSDKTHTCPPCPAPEAEGAPSVFLFPPKPKDTLMISRTPEVTCVVVDVSHEDPEVKFNWYVDGVEVHNAKTKPREEQYNSTYRVVSVLTVLHQDWLNGKEYKCKVSNKALPAPIEKTISKAKGQPREPQVYTLPPSREEMTKNQVSLTCLVKGFYPSDIAVEWESNGQPENNYKTTPPVLDSDGSFFLYSKLTVDKSRWQQGNVFSCSVMHEALHNHYTQKSLSLSPGK
# notes: direct fusion, linker 'none'
# B9: ICOSL ECD N52H/N57Y/Q100R/F172S - no linker - Fc C220S/L234A/L235E/G237A (Fc fusion)
# chain: B8 chain with P100R, F172S
# notes: direct fusion, linker 'none'
# B10: ICOSL ECD N52H/N57Y/Q100P - no linker - Fc C220S/E233P/L234V/L235A/G236del/S267K (Fc fusion)
# chain: DTQEKEVRAMVGSDVELSCACPEGSRFDLNDVYVYWQTSESKTVVTYHIPQHSSLEYVDSRYRNRALMSPAGMLRGDFSLRLFNVTPQDEQKFHCLVLSPSLGFQEVLSVEVTLHVAANFSVPVVSAPHSPSQDELTFTCTSINGYPRPNVYWINKTDNSLLDQALQNDTVFLNMRGLYDVVSVLRIARTPSVNIGCCIENVLLQQNLTVGSQTGNDIGERDKITENPVSTGEKNAATEPKSSDKTHTCPPCPAPPVAGPSVFLFPPKPKDTLMISRTPEVTCVVVDVKHEDPEVKFNWYVDGVEVHNAKTKPREEQYNSTYRVVSVLTVLHQDWLNGKEYKCKVSNKALPAPIEKTISKAKGQPREPQVYTLPPSREEMTKNQVSLTCLVKGFYPSDIAVEWESNGQPENNYKTTPPVLDSDGSFFLYSKLTVDKSRWQQGNVFSCSVMHEALHNHYTQKSLSLSPGK
# notes: direct fusion, linker 'None'
# B11: ICOSL ECD with N52H/N57Y/Q100R/C198R, Fc fusion (Table 30C) (Fc fusion)
# chain: DTQEKEVRAMVGSDVELSCACPEGSRFDLNDVYVYWQTSESKTVVTYHIPQHSSLEYVDSRYRNRALMSPAGMLRGDFSLRLFNVTPQDEQKFHCLVLSRSLGFQEVLSVEVTLHVAANFSVPVVSAPHSPSQDELTFTCTSINGYPRPNVYWINKTDNSLLDQALQNDTVFLNMRGLYDVVSVLRIARTPSVNIGCRIENVLLQQNLTVGSQTGNDIGERDKITENPVSTGEKNAATGGGGSGGGGSEPKSSDKTHTCPPCPAPEAEGAPSVFLFPPKPKDTLMISRTPEVTCVVVDVSHEDPEVKFNWYVDGVEVHNAKTKPREEQYNSTYRVVSVLTVLHQDWLNGKEYKCKVSNKALPAPIEKTISKAKGQPREPQVYTLPPSREEMTKNQVSLTCLVKGFYPSDIAVEWESNGQPENNYKTTPPVLDSDGSFFLYSKLTVDKSRWQQGNVFSCSVMHEALHNHYTQKSLSLSPG
# notes: not restated for the C198R set
# B12: ICOSL ECD Truncation #5 with N52H/N57Y/Q100R/C198R, Fc fusion (Fc fusion)
# chain: DTQEKEVRAMVGSDVELSCACPEGSRFDLNDVYVYWQTSESKTVVTYHIPQHSSLEYVDSRYRNRALMSPAGMLRGDFSLRLFNVTPQDEQKFHCLVLSRSLGFQEVLSVEVTLHVAANFSVPVVSAPHSPSQDELTFTCTSINGYPRPNVYWINKTDNSLLDQALQNDTVFLNMRGLYDVVSVLRIARTPSVNIGCRIENVLLQQGGGGSGGGGSEPKSSDKTHTCPPCPAPEAEGAPSVFLFPPKPKDTLMISRTPEVTCVVVDVSHEDPEVKFNWYVDGVEVHNAKTKPREEQYNSTYRVVSVLTVLHQDWLNGKEYKCKVSNKALPAPIEKTISKAKGQPREPQVYTLPPSREEMTKNQVSLTCLVKGFYPSDIAVEWESNGQPENNYKTTPPVLDSDGSFFLYSKLTVDKSRWQQGNVFSCSVMHEALHNHYTQKSLSLSPG
# notes: as for B11
# Molecular target: T2, human CTLA-4 (human, UniProt P16410 36-223)
# T2 construct: whole, on cells
# T2 sequence (P16410 36-223): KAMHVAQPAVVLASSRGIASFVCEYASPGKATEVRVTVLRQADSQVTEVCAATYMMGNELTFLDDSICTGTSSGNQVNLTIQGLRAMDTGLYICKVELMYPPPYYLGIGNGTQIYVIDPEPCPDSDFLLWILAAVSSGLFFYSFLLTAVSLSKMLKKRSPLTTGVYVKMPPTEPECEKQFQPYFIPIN
# Assay: flow cytometry, transfected Expi293 cells
MFI [MFI],MFI ratio to WT [fold],Binder
171000,18.2,B1
194000,20.6,B2
213000,22.7,B3
161000,17.1,B4
193000,20.5,B5
315000,33.5,B6
188000,,B7

# Molecular target: T3, human CD28 (human, UniProt P10747 19-220)
# T3 construct: whole, on cells
# Assay: flow cytometry, transfected Expi293 cells
MFI [MFI],MFI ratio to WT [fold],Binder
68700,13.1,B1
65500,12.5,B2
67600,12.9,B3
69900,13.4,B4
57300,10.9,B5
69600,13.3,B6

# Molecular target: T1, human ICOS
# Assay: flow cytometry, transfected Expi293 cells
MFI [MFI],MFI ratio to WT [fold],Binder
97100,1.2,B1
105000,1.3,B2
107000,1.4,B3
104000,1.3,B4
97700,,B8
106000,,B9
98500,,B10
104000,1.3,B5
103000,1.3,B6
93400,,B7

# Molecular target: T2, human CTLA-4
# Assay: flow cytometry, transfected cells; protein from CHO
MFI [MFI],MFI ratio to WT [fold],Binder
133000,17.5,B11
216000,28.5,B12

# Molecular target: T3, human CD28
# Assay: as above
MFI [MFI],MFI ratio to WT [fold],Binder
59200,34.3,B11
86300,50,B12

# Molecular target: T1, human ICOS
# Assay: as above
MFI [MFI],MFI ratio to WT [fold],Binder
139000,1.4,B11
110000,1.1,B12
